Molecular target: T1, purified recombinant R2 protein, P11157
T1 chain: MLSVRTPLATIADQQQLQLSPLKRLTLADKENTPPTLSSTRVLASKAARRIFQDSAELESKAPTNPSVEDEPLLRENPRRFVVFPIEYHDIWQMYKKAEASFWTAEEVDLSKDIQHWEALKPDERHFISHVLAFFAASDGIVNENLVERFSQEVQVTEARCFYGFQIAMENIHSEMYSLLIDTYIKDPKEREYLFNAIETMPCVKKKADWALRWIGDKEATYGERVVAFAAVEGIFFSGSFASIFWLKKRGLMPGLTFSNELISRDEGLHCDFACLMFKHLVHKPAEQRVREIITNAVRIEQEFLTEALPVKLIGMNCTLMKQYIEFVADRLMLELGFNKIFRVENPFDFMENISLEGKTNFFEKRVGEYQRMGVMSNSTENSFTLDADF

B1: human Myc epitope-tagged mouse ribonucleotide reductase R1 protein (protein)
chain: EQKLISEEDLMHVIKRDGRQERVMFDKITSRIQKLCYGLNMDFVDPAQITMKVIQGLYSGVTTVELDTLAAETAATLTTKHPDYAILAARIAVSNLHKETKKVFSDVMEDLYNYINPHNGRHSPMVASSTLDIVMANKDRLNSAIIYDRDFSYNYFGFKTLERSYLLKINGKVAERPQHMLMRVSVGIHKEDIDAAIETYNLLSEKWFTHASPTLFNAGTNRPQLSSCFLLSMKDDSIEGIYDTLKQCALISKSAGGIGVAVSCIRATGSYIAGTNGNSNGLVPMLRVYNNTARYVDQGGNKRPGAFAIYLEPWHLDIFEFLDLKKNTGKEEQRARDLFFALWIPDLFMKRVETNQDWSLMCPNECPGLDEVWGEEFEKLYESYEKQGRVRKVVKAQQLWYAIIESQTETGTPYMLYKDSCNRKSNQQNLGTIKCSNLCTEIVEYTSKDEVAVCNLASLALNMYVTPEHTYDFEKLAEVTKVIVRNLNKIIDINYYPIPEAHLSNKRHRPIGIGVQGLADAFILMRYPFESPEAQLLNKQIFETIYYGALEASCELAKEYGPYETYEGSPVSKGILQYDMWNVAPTDLWDWKPLKEKIAKYGIRNSLLIAPMPTASTAQILGNNESIEPYTSNIYTRRVLSGEFQIVNPHLLKDLTERGLWNEEMKNQIIACNGSIQSIPEIPDDLKQLYKTVWEISQKTVLKMAAERGAFIDQSQSLNIHIAEPNYGKLTSMHFYGWKQGLKTGMYYLRTRPAANPIQFTLNKEKLKDKEKALKEEEEKERNTAAMVCSLENREECLMCGS
  ribonucleotide reductase activity of the 9E10-immunoprecipitated R1 combined with purified recombinant R2: enzyme activity of 15.4±2.0 pmoles/mg/hr was detected when C1/mR1 cells (Table 1) were used as a source of recombinant R1
